Laboratory results published in patent US20180051253.

Biological target: T1, Nuclear Respiratory Factor 1 (NRF1), Q16656
T1 chain: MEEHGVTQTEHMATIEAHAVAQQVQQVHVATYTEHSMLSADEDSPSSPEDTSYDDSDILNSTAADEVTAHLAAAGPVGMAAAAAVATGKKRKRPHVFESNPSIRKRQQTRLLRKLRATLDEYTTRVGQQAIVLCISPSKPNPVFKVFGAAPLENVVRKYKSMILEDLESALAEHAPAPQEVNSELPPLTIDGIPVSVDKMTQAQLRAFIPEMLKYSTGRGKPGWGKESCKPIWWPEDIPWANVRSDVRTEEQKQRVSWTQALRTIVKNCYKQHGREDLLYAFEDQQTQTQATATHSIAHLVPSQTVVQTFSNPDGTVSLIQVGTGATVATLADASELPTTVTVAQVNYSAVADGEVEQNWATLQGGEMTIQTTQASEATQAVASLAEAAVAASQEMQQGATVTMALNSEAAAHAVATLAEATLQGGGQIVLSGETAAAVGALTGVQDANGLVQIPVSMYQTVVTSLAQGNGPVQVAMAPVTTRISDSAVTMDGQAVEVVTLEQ

B1: endogenous SIRT7 (protein)
chain: MAAGGLSRSERKAAERVRRLREEQQRERLRQVSRILRKAAAERSAEEGRLLAESADLVTELQGRSRRREGLKRRQEEVCDDPEELRGKVRELASAVRNAKYLVVYTGAGISTAASIPDYRGPNGVWTLLQKGRSVSAADLSEAEPTLTHMSITRLHEQKLVQHVVSQNCDGLHLRSGLPRTAISELHGNMYIEVCTSCVPNREYVRVFDVTERTALHRHQTGRTCHKCGTQLRDTIVHFGERGTLGQPLNWEAATEAASRADTILCLGSSLKVLKKYPRLWCMTKPPSRRPKLYIVNLQWTPKDDWAALKLHGKCDDVMRLLMAELGLEIPAYSRWQDPIFSLATPLRAGEEGSHSRKSLCRSREEAPPGDRGAPLSSAPILGGWFGRGCTKRTKRKKVT
- SIRT7 occupancy at gene promoters (ChIP-qPCR) after NRF1 siRNA: NRF1 knockdown (KD) using siRNA reduced SIRT7 occupancy at the promoters of mRPs and mTFs, but not RPS20
